For one test, the target named is histone H3 (UniProt P68432). As to the kind of experiment: fluorescence spectroscopy (acrylodan-labelled PfNapS titrated with histone). As to conditions: read off a plot.
The target of test [1] is PfNapS residues 29-221 (crystallised construct) (Plasmodium falciparum). As to the kind of experiment: crystal structure; hanging drop vapour diffusion at 20°C, 0.2 M di-ammonium tartrate, 20% PEG 3350; space group P212121, three dimers in the asymmetric unit; Se-SAD at 3.2 Å, native data to 2.8 Å.

The text below walks through data of PMC2873526.

On to “PfNapS labelled with acrylodan (PfNapS^dye) C47A”, for which the response with histone H3 (Histone H3 5 microgram) was found to be 0.55; in the test with histone H3 (Histone H3 10 microgram), 0.56; with histone H3 (Histone H3 15 microgram), 0.6; with histone H3 (Histone H3 20 microgram) it was 0.61; in the test with histone H3 (Histone H3 25 microgram), 0.64; in the test with histone H3 (Histone H3 30 microgram), 0.63.
Usually stoichiometry N stands for the number of molecules, sites or subunits per partner or assembly. In turn, “PfNapS residues 29-221 (crystallised construct) (domain or fragment)” came in with a stoichiometry N in test [1] of 2.
